Measured values as given in publication PMC6428754, “Peptidoglycan Remodeling Enables Escherichia coli To Survive Severe Outer Membrane Assembly Defect” (mBio, 2019).

Target: T1, oligohistidine-tagged PBP1B (E. coli, UniProt P02919 1-844)
T1 construct: PBP1B, bifunctional peptidoglycan synthase (glycosyltransferase and DD-transpeptidase) of Escherichia coli; source: purified
T1 sequence (looked up): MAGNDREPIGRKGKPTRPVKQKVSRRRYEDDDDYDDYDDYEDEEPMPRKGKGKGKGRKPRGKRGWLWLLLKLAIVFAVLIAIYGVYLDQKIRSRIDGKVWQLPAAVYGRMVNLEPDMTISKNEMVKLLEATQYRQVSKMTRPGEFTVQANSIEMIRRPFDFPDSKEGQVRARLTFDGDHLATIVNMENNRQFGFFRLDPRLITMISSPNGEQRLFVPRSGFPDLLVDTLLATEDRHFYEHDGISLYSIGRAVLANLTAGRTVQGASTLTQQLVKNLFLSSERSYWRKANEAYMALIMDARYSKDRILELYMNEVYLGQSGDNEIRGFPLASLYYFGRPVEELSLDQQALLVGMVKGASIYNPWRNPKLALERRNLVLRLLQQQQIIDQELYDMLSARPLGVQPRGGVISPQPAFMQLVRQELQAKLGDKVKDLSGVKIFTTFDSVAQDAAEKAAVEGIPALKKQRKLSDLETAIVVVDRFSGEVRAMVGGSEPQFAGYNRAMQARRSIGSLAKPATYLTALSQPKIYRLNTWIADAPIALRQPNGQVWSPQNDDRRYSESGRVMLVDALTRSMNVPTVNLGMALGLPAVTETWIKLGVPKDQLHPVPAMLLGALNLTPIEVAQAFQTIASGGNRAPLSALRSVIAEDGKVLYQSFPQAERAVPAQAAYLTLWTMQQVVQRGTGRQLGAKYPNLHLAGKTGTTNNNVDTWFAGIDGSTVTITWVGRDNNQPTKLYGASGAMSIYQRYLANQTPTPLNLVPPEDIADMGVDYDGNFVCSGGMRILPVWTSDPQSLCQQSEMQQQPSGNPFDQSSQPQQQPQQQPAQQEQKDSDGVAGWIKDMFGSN
Assay: MST; microscale thermophoresis curves; means ± SD from three independent experiments; which partner was labelled is not told (Text S1)
Conditions: both partners purified

Kd: 112 nM
B1: LdtD (LD-transpeptidase, formerly YcbB), untagged (enzyme, E. coli, UniProt P22525 1-615, looked up)
chain: MLLNMMCGRQLSAISLCLAVTFAPLFNAQADEPEVIPGDSPVAVSEQGEALPQAQATAIMAGIQPLPEGAAEKARTQIESQLPAGYKPVYLNQLQLLYAARDMQPMWENRDAVKAFQQQLAEVAIAGFQPQFNKWVELLTDPGVNGMARDVVLSDAMMGYLHFIANIPVKGTRWLYSSKPYALATPPLSVINQWQLALDKGQLPTFVAGLAPQHPQYAAMHESLLALLCDTKPWPQLTGKATLRPGQWSNDVPALREILQRTGMLDGGPKITLPGDDTPTDAVVSPSAVTVETAETKPMDKQTTSRSKPAPAVRAAYDNELVEAVKRFQAWQGLGADGAIGPATRDWLNVTPAQRAGVLALNIQRLRLLPTELSTGIMVNIPAYSLVYYQNGNQVLDSRVIVGRPDRKTPMMSSALNNVVVNPPWNVPPTLARKDILPKVRNDPGYLESHGYTVMRGWNSREAIDPWQVDWSTITASNLPFRFQQAPGPRNSLGRYKFNMPSSEAIYLHDTPNHNLFKRDTRALSSGCVRVNKASDLANMLLQDAGWNDKRISDALKQGDTRYVNIRQSIPVNLYYLTAFVGADGRTQYRTDIYNYDLPARSSSQIVSKAEQLIR
notes: LdtD (formerly YcbB), LD-transpeptidase of Escherichia coli; Printed as 'untagged LdtD'; source: purified
